Laboratory results taken from publication PMC7295030, “Aggregation pathways of human γ D crystallin induced by metal ions revealed by time dependent methods” (PeerJ, 2020).

Molecular target: the molecule itself
Assay: dynamic light scattering; HγD 50 µM with 1.5 equivalents of CuSO4, 10 mM ammonium acetate pH 7.2, 50 mM NaCl, 37 °C, measured every 1.6 min during 12 h

B1: Human γD crystallin (natural protein)
chain: GKITLYEDRGFQGRHYECSSDHPNLQPYLSRCNSARVDSGCWMLYEQPNYSGLQYFLRRGDYADHQQWMGLSDSVRSCRLIPHSGSHRIRLYEREDYRGQMIEFTEDCSCLQDRFRFNEIHSLNVLEGSWVLYELSNYRGRQYLLMPGDYRRYQDWGATNARVGSLRRVIDFS
notes: Human γD crystallin (HγD), UniProt P07320; Only the vector pET16b is named; For NMR the protein was 15N-labelled (1H-15N HSQC); also called HγD; human gamma D crystallin; source: E. coli BL21-RIL (plasmid pET16b-HγD), purified (Q-Sepharose, Sephadex 200)
  binding result: binds
